According to patent US20210371878A1:

What was measured:
[1] = molecular target: C-intein of Npu DnaE fused to 3' ABCA4 (set 1, from Cys1150), 3xflag (product of pzac-CMV260-3' ABCA4 intein) (Nostoc punctiforme; human) (UniProt P78363); test: cell-based or functional assay
[2] = molecular target: C-intein of DnaE from Nostoc punctiforme fused to the C-terminal half of EGFP, 3xflag (product of pAAV2.1-CMV-3' EGFP intein) (Nostoc punctiforme); test: cell-based or functional assay

Full-length ABCA4 by Western blot band intensity, relative to the single AAV plasmid (HEK293, set 1) [1] [%] | EGFP protein amount by Western blot band intensity, relative to a single AAV plasmid [2] [%] | Substance
61 | – | 5' ABCA4 (set 1, split at Cys1150) fused to the N-intein of Npu DnaE, 3xflag (product of pzac-CMV260-5' ABCA4 intein) (from UniProt P78363 1-1150)
– | 76 | N-terminal half of EGFP fused to the N-intein of DnaE from Nostoc punctiforme, 3xflag (product of pAAV2.1-CMV-5' EGFP intein)
